Test results as given in publication doi:10.1101/2021.03.22.436414 (bioRxiv, 2021).

Molecular target: the molecule itself
Assay: TIRF microscopy of filament lengths at steady state

B1: Recombinant S. cerevisiae septin octamer capped with Cdc11-SNAP (Cdc11-Cdc12-Cdc3-Cdc10-Cdc10-Cdc3-Cdc12-Cdc11) (complex)
chain 1: MSGIIDASSALRKRKHLKRGITFTVMIVGQSGSGRSTFINTLCGQQVVDTSTTILLPTDTSTEIDLQLREETVELEDDEGVKIQLNIIDTPGFGDSLDNSPSFEIISDYIRHQYDEILLEESRVRRNPRFKDGRVHCCLYLINPTGHGLKEIDVEFIRQLGSLVNIIPVISKSDSLTRDELKLNKKLIMEDIDRWNLPIYNFPFDEDEISDEDYETNMYLRTLLPFAIIGSNEVYEMGGDVGTIRGRKYPWGILDVEDSSISDFVILRNALLISHLHDLKNYTHEILYERYRTEALSGESVAAESIRPNLTKLNGSSSSSTTTRRNTNPFKQSNNINNDVLNPASDMHGQSTGENNETYMTREEQIRLEEERLKAFEERVQQELLLKRQELLQREKELREIEARLEKEAKIKQEE
chain 2: MSAATATAAPVPPPVGISNLPNQRYKIVNEEGGTFTVMLCGESGLGKTTFINTLFQTVLKRADGQQHRQEPIRKTVEIDITRALLEEKHFELRVNVIDTPGFGDNVNNNKAWQPLVDFIDDQHDSYMRQEQQPYRTKKFDLRVHAVLYFIRPTGHGLKPIDIETMKRLSTRANLIPVIAKADTLTAQELQQFKSRIRQVIEAQEIRIFTPPLDADSKEDAKSGSNPDSAAVEHARQLIEAMPFAIVGSEKKFDNGQGTQVVARKYPWGLVEIENDSHCDFRKLRALLLRTYLLDLISTTQEMHYETYRRLRLEGHENTGEGNEDFTLPAIAPARKLSHNPRYKEEENALKKYFTDQVKAEEQRFRQWEQNIVNERIRLNGDLEEIQGKVKKLEEQVKSLQVKKSHLK
chain 3: MSLKEEQVSIKQDPEQEERQHDQFNDVQIKQESQDHDGVDSQYTNGTQNDDSERFEAAESDVKVEPGLGMGITSSQSEKGQVLPDQPEIKFIRRQINGYVGFANLPKQWHRRSIKNGFSFNLLCVGPDGIGKTTLMKTLFNNDDIEANLVKDYEEELANDQEEEEGQGEGHENQSQEQRHKVKIKSYESVIEENGVKLNLNVIDTEGFGDFLNNDQKSWDPIIKEIDSRFDQYLDAENKINRHSINDKRIHACLYFIEPTGHYLKPLDLKFMQSVYEKCNLIPVIAKSDILTDEEILSFKKTIMNQLIQSNIELFKPPIYSNDDAENSHLSERLFSSLPYAVIGSNDIVENYSGNQVRGRSYPWGVIEVDNDNHSDFNLLKNLLIKQFMEELKERTSKILYENYRSSKLAKLGIKQDNSVFKEFDPISKQQEEKTLHEAKLAKLEIEMKTVFQQKVSEKEKKLQKSETELFARHKEMKEKLTKQLKALEDKKKQLELSINSASPNVNHSPVPTKKKGFLR
chain 4: MDPLSSVQPASYVGFDTITNQIEHRLLKKGFQFNIMVVGQSGLGKSTLINTLFASHLIDSATGDDISALPVTKTTEMKISTHTLVEDRVRLNINVIDTPGFGDFIDNSKAWEPIVKYIKEQHSQYLRKELTAQRERFITDTRVHAILYFLQPNGKELSRLDVEALKRLTEIANVIPVIGKSDTLTLDERTEFRELIQNEFEKYNFKIYPYDSEELTDEELELNRSVRSIIPFAVVGSENEIEINGETFRGRKTRWSAINVEDINQCDFVYLREFLIRTHLQDLIETTSYIHYEGFRARQLIALKENANSRSSAHMSSNAIQR
modifications: Alexafluor488 dye on the SNAP tag
Protein B1 has a Kd of 84.5 ± 8.5 nM.
